Reference: IntAct's records for PubMed 17267444

Key:
spk1_arath SPK1 = spk1_arath SPK1 (UniProt Q8SAB7)
scar1_arath SCAR1 = scar1_arath SCAR1 (UniProt Q6AWX6)
scarl_arath WAVE5 = scarl_arath WAVE5 (UniProt Q5XPK0)
scar2_arath SCAR2 = scar2_arath SCAR2 (UniProt Q5XPJ9)

Chain of Rac-like GTP-binding protein ARAC9 (Arabidopsis thaliana (Mouse-ear cress)), Q9XGU0 G27V (Q9XGU0 whole entry G27V): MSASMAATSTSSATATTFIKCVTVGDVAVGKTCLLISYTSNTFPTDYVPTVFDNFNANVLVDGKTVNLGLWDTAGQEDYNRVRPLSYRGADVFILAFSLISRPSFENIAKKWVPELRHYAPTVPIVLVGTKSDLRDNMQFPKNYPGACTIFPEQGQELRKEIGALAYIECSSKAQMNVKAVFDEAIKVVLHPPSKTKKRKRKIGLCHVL
Chain of spk1_arath SPK1 (Q8SAB7 whole entry): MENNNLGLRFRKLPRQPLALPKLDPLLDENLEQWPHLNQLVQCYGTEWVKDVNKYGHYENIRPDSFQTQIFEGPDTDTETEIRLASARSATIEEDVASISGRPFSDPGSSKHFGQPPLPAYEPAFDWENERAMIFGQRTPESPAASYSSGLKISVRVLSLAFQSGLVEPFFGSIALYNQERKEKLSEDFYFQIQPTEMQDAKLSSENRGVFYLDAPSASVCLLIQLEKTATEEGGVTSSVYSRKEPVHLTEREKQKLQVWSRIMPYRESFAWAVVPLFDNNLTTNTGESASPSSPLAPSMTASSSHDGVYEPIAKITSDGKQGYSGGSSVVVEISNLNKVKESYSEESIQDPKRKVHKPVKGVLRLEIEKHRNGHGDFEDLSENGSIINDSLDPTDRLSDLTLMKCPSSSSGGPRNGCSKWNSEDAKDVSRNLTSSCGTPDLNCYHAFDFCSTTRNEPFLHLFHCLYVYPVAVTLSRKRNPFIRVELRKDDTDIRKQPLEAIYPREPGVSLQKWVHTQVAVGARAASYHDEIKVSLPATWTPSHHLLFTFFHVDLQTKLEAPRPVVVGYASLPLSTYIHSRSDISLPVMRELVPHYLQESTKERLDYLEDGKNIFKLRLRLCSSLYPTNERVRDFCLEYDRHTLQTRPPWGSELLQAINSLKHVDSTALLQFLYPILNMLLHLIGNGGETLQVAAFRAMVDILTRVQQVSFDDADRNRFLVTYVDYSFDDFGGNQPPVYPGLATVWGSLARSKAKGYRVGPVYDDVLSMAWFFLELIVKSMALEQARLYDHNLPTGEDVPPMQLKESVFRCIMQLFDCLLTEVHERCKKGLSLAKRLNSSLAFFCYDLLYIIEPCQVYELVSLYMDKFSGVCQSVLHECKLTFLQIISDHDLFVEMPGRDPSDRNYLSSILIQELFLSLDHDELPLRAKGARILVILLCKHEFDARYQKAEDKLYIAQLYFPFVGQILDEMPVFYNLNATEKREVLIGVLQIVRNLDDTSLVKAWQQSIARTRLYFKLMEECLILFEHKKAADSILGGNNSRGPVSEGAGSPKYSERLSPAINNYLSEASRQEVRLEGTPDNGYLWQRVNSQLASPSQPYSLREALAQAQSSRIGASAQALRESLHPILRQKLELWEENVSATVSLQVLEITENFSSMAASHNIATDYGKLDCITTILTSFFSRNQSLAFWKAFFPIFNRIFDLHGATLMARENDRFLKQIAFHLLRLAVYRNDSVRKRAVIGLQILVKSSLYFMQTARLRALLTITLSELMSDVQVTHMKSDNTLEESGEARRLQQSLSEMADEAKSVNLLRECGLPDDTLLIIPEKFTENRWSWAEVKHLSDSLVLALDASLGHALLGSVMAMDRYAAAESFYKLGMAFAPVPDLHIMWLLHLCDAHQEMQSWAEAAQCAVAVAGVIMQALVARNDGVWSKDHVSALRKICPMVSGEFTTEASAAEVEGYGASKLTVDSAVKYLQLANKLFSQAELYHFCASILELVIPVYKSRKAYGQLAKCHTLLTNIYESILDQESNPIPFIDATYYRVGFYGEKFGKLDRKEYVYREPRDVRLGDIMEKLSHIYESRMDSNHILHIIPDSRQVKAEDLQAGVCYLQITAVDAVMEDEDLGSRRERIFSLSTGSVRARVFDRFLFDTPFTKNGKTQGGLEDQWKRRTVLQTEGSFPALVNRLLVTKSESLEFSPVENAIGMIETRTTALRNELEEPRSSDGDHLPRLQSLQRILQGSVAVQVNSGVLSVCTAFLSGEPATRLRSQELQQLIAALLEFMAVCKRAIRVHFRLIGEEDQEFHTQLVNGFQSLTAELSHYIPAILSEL
Chain of scarl_arath WAVE5 (Q5XPK0 whole entry): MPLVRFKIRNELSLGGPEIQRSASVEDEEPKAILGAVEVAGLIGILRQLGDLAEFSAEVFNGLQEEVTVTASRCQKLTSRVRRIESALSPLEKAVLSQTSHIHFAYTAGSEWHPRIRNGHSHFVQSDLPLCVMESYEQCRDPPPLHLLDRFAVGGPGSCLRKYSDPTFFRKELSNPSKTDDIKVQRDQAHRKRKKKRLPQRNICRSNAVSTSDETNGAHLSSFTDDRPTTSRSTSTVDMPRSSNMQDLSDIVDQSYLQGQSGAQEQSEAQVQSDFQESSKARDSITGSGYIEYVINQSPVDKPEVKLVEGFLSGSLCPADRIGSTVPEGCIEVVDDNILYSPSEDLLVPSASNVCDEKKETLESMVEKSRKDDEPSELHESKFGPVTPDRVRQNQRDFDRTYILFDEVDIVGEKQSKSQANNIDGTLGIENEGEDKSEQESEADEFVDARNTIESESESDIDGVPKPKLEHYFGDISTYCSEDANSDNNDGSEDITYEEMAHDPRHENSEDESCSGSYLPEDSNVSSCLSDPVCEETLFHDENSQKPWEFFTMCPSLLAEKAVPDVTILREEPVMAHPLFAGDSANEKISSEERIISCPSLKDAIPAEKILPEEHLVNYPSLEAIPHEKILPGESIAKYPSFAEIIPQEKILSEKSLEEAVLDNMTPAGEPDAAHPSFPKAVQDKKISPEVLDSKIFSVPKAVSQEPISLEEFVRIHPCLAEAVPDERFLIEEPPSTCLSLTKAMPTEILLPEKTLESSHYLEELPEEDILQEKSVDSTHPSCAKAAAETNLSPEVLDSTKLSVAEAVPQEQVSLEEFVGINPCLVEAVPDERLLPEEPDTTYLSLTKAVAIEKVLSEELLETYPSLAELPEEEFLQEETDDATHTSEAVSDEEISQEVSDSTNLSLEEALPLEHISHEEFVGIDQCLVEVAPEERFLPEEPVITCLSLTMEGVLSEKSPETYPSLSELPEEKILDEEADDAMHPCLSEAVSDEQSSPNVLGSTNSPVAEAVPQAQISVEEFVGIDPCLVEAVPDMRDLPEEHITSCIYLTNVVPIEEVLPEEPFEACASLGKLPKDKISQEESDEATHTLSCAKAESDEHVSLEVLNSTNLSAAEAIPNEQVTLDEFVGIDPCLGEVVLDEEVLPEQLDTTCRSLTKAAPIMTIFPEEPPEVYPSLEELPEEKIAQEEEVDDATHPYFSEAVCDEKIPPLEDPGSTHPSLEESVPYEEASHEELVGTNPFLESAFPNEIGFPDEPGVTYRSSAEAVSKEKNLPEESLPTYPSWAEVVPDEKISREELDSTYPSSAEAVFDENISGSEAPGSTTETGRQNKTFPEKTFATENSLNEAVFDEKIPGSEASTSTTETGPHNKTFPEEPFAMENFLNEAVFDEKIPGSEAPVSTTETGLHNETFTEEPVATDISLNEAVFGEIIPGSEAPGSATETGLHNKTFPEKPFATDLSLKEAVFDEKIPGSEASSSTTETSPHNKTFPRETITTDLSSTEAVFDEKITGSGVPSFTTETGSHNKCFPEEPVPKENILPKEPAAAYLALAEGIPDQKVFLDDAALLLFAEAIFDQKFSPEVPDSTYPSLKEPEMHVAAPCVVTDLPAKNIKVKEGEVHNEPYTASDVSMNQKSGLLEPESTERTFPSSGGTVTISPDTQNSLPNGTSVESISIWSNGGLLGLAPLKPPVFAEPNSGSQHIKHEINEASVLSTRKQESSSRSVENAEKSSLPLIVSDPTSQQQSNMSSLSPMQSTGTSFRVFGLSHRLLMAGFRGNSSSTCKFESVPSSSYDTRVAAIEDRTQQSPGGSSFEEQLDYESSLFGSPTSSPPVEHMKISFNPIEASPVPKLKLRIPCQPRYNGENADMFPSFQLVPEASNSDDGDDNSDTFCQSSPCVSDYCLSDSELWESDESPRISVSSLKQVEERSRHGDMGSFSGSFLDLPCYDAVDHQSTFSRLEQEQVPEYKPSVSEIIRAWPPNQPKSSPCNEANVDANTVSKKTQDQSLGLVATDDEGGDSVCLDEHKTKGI
Chain of Rac-like GTP-binding protein ARAC2 (Arabidopsis thaliana (Mouse-ear cress)), Q38903 T20D (Q38903 whole entry T20D): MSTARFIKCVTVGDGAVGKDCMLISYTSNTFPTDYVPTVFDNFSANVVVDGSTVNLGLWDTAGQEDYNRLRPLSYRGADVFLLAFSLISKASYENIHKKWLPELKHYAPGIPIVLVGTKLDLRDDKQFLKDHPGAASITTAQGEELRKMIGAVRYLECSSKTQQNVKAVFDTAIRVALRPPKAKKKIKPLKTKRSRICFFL
Chain of scar1_arath SCAR1 (Q6AWX6 whole entry): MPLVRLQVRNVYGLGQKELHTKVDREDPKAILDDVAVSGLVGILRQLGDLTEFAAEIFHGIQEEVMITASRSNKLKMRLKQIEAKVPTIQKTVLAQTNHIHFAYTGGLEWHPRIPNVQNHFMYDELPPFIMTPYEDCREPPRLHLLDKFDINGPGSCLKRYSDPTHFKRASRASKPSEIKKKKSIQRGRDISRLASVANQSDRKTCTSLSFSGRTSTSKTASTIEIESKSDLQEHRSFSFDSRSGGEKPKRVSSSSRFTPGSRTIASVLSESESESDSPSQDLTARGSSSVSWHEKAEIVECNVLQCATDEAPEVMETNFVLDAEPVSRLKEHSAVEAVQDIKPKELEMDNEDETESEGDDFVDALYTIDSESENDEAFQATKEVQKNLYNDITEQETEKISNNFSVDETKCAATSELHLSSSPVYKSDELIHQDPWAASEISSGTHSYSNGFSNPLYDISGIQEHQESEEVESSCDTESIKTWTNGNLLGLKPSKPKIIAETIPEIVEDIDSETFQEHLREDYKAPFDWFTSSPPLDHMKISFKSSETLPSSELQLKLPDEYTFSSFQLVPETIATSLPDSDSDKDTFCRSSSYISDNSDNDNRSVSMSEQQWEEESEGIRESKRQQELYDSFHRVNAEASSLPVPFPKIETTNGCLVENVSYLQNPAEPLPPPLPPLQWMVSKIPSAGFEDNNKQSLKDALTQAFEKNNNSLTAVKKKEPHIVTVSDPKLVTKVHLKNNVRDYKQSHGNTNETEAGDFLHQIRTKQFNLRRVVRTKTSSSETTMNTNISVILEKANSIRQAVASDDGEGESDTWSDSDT

Row | Substance | effect of a mutation on the interaction (spk1_arath SPK1) | effect of a mutation on the interaction (scar1_arath SCAR1) | effect of a mutation on the interaction (scarl_arath WAVE5) | effect of a mutation on the interaction (scar2_arath SCAR2)
1 | Rac-like GTP-binding protein ARAC9 (Arabidopsis thaliana (Mouse-ear cress)), Q9XGU0 G27V | disrupting interaction | disrupting interaction | disrupting interaction | 
2 | Rac-like GTP-binding protein ARAC2 (Arabidopsis thaliana (Mouse-ear cress)), Q38903 T20D |  |  |  | disrupting interaction
